# In patent US20240358847A1, “TROP2 BINDERS AND CONJUGATES THEREOF” (MERCK SHARP & DOHME LLC, priority 2023, published 2024):
# B1: αTROP2 (HC:BSM-YTE-S375C) (LC:BSM-Y53D): HC SEQ ID NO: 20 or 90; LC SEQ ID NO: 22 (antibody)
# heavy: QVQLLQSGSELKKPGASVKVSCKASGYTFTNYGMNWVRQAPGQGLKWMGWINTYTGEPTYTDDFKGRFSFSLDTSVSQAYLQISSLKAEDTAVYYCARGGFGSSYWYFDVWGQGTLVTVSSASTKGPSVFPLAPSSKSTSGGTAALGCLVKDYFPEPVTVSWNSGALTSGVHTFPAVLQSSGLYSLSSVVTVPSSSLGTQTYICNVNHKPSNTKVDKKVEPKSCDKTHTCPPCPAPELLGGPSVFLFPPKPKDTLYITREPEVTCVVVDVSHEDPEVKFNWYVDGVEVHNAKTKPREEQYNSTYRVVSVLTVLHQDWLNGKEYKCKVSNKALPAPIEKTISKAKGQPREPQVYTLPPSRDELTKNQVSLTCLVKGFYPCDIAVEWESNGQPENNYKTTPPVLDSDGSFFLYSKLTVDKSRWQQGNVFSCSVMHEALHNHYTQKSLSLSPGK
# light: DIQLTQSPSSLSASVGDRVTITCKASQDVSIAVAWYQQKPGKAPKLLIYSASDRYTGVPSRFSGSGSGTDFTLTISSLQPEDFATYYCQQHYITPLTFGPGTKVEIKRTVAAPSVFIFPPSDEQLKSGTASVVCLLNNFYPREAKVQWKVDNALQSGNSQESVTEQDSKDSTYSLSSTLTLSKADYEKHKVYACEVTHQGLSSPVTKSFNRGEC
# modifications: YTE Fc mutations
# B2: ADC 1: αTROP2 (HC:BSM-YTE-S375C) (LC:BSM-Y53D) conjugated to MP-AA-PABC-MMAE (conjugate)
# heavy: B1 heavy
# light: B1 light
# B3: αTROP2 (HC: BSM-YTE-S375C-MMAE)(LC: BSM-Y53D) (conjugate)
# heavy: B1 heavy
# light: B1 light
# Legend:
# [1] = Hydrophobic interaction chromatography (HIC); assay type: physicochemical; conditions: butyl HIC column, FIG. 4
# Procedure: The samples are eluted using an inverted gradient from mobile phase A to 50 mM sodium phosphate, pH 7.0/isopropanol (80:20 v/v) (mobile phase B). The elution is followed by recording the A280 nm as a function of time, the data is then exported and analyzed using the Empower software.
# (§1) Developability characteristics for various mutants were performed as in Bailly Et al., Predicting Antibody Developability Profiles Through Early Stage Discovery Screening, MABS 12 (1): e1743053 (2020) (doi: 10.1080/19420862.2020.17430530), which is incorporated herein by reference in its entirety. Various methods used may be found herein under General Methods.
# UP-SEC aggregation = assay type: physicochemical
# Procedure: as §1
# [2] = tested on: BxPC3 pancreatic cancer cells; assay: In vivo anti-tumor efficacy in BxPC3 mouse model; design: species or system BALB/c nude mice; conditions: dose response, IV single dose, FIG. 14
# Procedure: Experimental protocol: 7-8 week old female BALB/c nude mice were purchased from Gempharmatech Co., Ltd. ([…]). […] Mouse body weights and tumors were measured twice weekly, and tumor volumes calculated using the formula V=0.5 [a*b2]; where a and b are the long and short diameters of the tumor, respectively. 110 mice were assigned to 11 groups of 10 mice each using a computer-generated randomization procedure to minimize tumor volume variance across groups. Treatments were started when tumors reached an average size of 200 mm^3. PBS and the MMAE conjugates were dosed intravenously (IV) at 2 mg/kg according to Table 25.
# Mouse body weights and tumors were measured twice weekly, and tumor volumes calculated using the formula V=0.5 [a*b2]; where a and b are the long and short diameters of the tumor, respectively. 70 mice were assigned to 7 groups of 10 mice each using a computer-generated randomization procedure to minimize tumor volume variance across groups. Treatments were started when tumors reached an average size of 200 mm^3. PBS, a control mAb, and bioconjugate were dosed intravenously (IV) according to Table 26.
# [3] = Drug antibody ratio (DAR) of ADC by MS / HIC; assay type: physicochemical
# Procedure: A 100 mM solution of dehydroascorbic acid (8.0 equiv.) in water was added slowly and the solution was mixed at room temperature for 4-10 hours or until completion (monitored by reverse phase liquid chromatography (RP-LC) and sodium dodecyl sulfate capillary electrophoresis (CE-SDS)). A 20 mg/mL solution of linker-payload (3.0 equiv.) in DMSO was added and the conjugation was incubated at room temperature for 2 hours (monitored by Quadrupole time-of-flight (QTOF) mass spectrometry (MS)) before addition of L-cysteine (5 equiv., 50 mM in water) to quench residual linker-payload. […] The ADC was brought to the final desired concentration using Sartorius Vivacell 70 Centrifugal Concentrators and Amicon® Ultra Centrifugal Filters.
# The control antibody profile is the unconjugated antibody.
# Non-reducing CE-SDS = assay type: physicochemical
# Procedure: as §1
# [4] = Rat PK of αTROP2 MMAE ADC (tAb, cAb, released MMAE); assay type: in vivo, Wistar Hannover Rats; conditions: 5 mg/kg IV, up to 14 days, LLOQ […]
# Procedure: Plasma concentrations of payload conjugated anti-TROP2 antibody (cAb), total antibody (tAb), and released payload were measured up to 14 days post dose.
molecule,measurement,setting,value
B1,HIC peak elution,[1],24.14 fraction
B2,Purity by UP-SEC,UP-SEC aggregation,96.4%
same,tumor volume,[2],effective at reducing tumor volume
same,unconjugated antibody,[3]; by MS,unconjugated antibody (1.2%)
same,Purity by CE-SDS NR,Non-reducing CE-SDS,94.7%
same,unconjugated MMAE in the plasma,[4],no detectable
B3,% HMW (SEC),UP-SEC aggregation; Table 22,4.33%
same,% HMW (SEC),UP-SEC aggregation; Table 23,4.33%
same,DAR,[3]; Table 22,1.7
same,DAR,[3]; Table 23,1.7
